Assay results taken from PMC5022061, “A Rapid and Efficient Luminescence-based Method for Assaying Phosphoglycosyltransferase Enzymes” (Scientific Reports, 2016).

Legend:
[1] = molecular target: T1, PglC from H. pullorum (PglC (H. pu)) (Helicobacter pullorum, UniProt E1B268); assay: UMP-Glo luminescence (UMP release), time course; format: biochemical; conditions: 20 μM UDP-GlcNAc; 20 μM Und-P; 0.3 μM enzyme; 5 mM MgCl2; pH 7.5; 0.1% Triton X-100; 10% DMSO
T1 construct: N-terminal His6-SUMO tag, tag cleavage not mentioned; E. coli BL21-RIL; DDM-solubilized membrane fraction, Ni-NTA
T1 sequence (E1B268 entry or part of it): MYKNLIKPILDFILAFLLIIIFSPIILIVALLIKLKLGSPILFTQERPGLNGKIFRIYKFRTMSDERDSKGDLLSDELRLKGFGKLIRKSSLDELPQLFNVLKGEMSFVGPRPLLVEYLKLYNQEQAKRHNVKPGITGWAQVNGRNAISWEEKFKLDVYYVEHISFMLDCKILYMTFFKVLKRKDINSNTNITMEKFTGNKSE

[2] = test system: CC(C)=CCC/C(C)=C/CC/C(C)=C/CC/C(C)=C\CC/C(C)=C\CC/C(C)=C\CC/C(C)=C\CC/C(C)=C\CC/C(C)=C\CC/C(C)=C\CC/C(C)=C\COP(=O)(O)O; assay: purified protein; conditions: 80 μM UDP-diNAcBac, 5 mM MgCl2, pH 7.5, room temperature, 0.1% Triton X-100, 10% DMSO
[3] = test system: CC(=O)N[C@H]1[C@@H](OP(=O)(O)OP(=O)(O)OC[C@H]2O[C@@H](n3ccc(=O)[nH]c3=O)[C@H](O)[C@@H]2O)O[C@H](C)[C@@H](NC(C)=O)[C@@H]1O; assay: purified protein; conditions: 60 μM Und-P, 5 mM MgCl2, pH 7.5, room temperature, 0.1% Triton X-100, 10% DMSO

Row | Compound | UMP-Glo luminescence (UMP release), time course [1] | Km [2] [µM] | kcat [2] [s⁻¹] | Km [3] [µM] | kcat [3] [s⁻¹]
1 | CC(=O)N[C@H]1[C@@H](OP(=O)(O)OP(=O)(O)OC[C@H]2O[C@@H](n3ccc(=O)[nH]c3=O)[C@H](O)[C@@H]2O)O[C@H](CO)[C@@H](O)[C@@H]1O [UDP-GlcNAc] | demonstrates that the H. pullorum PglC catalyzes turnover of these substrates | – | – | – | –
2 | CC(C)=CCC/C(C)=C/CC/C(C)=C/CC/C(C)=C\CC/C(C)=C\CC/C(C)=C\CC/C(C)=C\CC/C(C)=C\CC/C(C)=C\CC/C(C)=C\CC/C(C)=C\COP(=O)(O)O [Und-P] | demonstrates that the H. pullorum PglC catalyzes turnover of these substrates | – | – | – | –
3 | PglC from Campylobacter jejuni (SUMO-PglC) (Campylobacter jejuni subsp. jejuni NCTC 11168 = ATCC 700819) | – | 7.18 ± 1.37 | 5.17 ± 0.333 | 24.61 ± 3.30 | 5.67 ± 0.333
